How the values were obtained:
GlgA–GlgB-WC = biological target: T1, GlgA–GlgB-WC (Waddlia chondrophila, UniProt D6YUJ8); assay: […]-glucosyl incorporation into glycogen; zymogram; type: cell-based; conditions: glycogen as acceptor, 30 °C; glycogen synthase domain; labelled compound
T1 construct: gene wcw_0437; natural GlgA-GlgB gene fusion, his-tagged, modified pET15b, E. coli BW25113 delta-glgA; crude extract on zymogram
T1 sequence (D6YUJ8 1-1463): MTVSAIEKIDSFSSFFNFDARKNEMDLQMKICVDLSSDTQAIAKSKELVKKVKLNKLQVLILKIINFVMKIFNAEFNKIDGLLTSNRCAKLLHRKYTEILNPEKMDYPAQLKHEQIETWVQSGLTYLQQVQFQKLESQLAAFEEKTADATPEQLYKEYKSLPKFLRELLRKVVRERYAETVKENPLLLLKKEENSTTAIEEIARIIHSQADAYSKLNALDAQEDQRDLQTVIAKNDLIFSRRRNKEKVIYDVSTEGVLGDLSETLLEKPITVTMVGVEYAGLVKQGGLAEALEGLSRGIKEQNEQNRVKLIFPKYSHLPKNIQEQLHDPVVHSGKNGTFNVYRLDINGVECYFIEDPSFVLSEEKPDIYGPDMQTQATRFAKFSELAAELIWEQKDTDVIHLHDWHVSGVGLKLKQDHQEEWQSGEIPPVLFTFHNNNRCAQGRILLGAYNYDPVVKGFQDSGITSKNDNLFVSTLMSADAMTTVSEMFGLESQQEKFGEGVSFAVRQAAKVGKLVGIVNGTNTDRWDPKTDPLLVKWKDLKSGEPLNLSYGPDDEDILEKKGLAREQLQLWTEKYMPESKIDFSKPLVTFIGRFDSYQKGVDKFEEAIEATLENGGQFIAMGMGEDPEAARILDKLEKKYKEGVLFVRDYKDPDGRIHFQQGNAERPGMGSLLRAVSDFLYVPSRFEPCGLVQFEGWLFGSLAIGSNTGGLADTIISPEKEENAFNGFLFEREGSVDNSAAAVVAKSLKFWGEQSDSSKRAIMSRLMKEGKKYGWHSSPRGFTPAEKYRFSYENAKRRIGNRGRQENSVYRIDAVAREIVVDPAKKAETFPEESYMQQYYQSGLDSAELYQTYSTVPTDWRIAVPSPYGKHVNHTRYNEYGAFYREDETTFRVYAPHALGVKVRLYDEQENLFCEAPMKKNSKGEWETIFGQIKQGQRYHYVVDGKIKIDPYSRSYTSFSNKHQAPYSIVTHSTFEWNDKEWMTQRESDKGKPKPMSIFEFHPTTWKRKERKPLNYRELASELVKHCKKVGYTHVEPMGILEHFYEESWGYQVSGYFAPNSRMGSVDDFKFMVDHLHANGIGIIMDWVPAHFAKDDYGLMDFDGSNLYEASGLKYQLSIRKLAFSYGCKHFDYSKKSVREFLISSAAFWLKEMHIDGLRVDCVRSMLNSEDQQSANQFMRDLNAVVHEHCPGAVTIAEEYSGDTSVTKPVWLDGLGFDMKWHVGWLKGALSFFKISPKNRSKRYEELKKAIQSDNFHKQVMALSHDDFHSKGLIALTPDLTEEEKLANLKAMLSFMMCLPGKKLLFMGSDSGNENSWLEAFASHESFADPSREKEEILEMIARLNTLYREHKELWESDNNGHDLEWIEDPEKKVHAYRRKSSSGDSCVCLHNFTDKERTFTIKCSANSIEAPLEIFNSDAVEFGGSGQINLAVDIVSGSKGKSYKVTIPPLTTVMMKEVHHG

GlgE-WC = biological target: T2, GlgE-WC (Waddlia chondrophila, UniProt D6YT22); assay: maltosyl transfer, FACE capillary electrophoresis and Pi release; type: biochemical; conditions: 30 °C
T2 sequence (D6YT22 1-649): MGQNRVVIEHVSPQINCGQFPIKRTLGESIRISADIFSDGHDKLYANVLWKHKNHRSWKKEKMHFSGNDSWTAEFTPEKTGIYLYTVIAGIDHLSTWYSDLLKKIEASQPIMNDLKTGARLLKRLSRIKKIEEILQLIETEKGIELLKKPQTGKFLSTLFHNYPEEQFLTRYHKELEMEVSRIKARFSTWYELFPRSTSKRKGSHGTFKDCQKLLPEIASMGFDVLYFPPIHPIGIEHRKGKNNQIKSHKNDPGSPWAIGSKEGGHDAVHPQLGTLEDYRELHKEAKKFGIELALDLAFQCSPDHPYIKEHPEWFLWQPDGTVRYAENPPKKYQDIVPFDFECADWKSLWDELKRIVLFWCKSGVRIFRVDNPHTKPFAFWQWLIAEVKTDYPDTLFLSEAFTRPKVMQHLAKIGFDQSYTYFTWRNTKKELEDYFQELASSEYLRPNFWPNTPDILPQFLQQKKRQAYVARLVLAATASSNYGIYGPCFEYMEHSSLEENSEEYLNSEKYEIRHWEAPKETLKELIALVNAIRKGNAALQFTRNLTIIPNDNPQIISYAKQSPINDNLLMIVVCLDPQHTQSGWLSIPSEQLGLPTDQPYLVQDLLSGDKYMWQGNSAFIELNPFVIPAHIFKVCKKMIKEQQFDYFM

[1] = test system: O=P(O)(O)O[C@H]1O[C@H](CO)[C@@H](O[C@H]2O[C@H](CO)[C@@H](O)[C@H](O)[C@H]2O)[C@H](O)[C@H]1O; assay: purified protein; conditions: 10 mM maltoheptaose as acceptor per Fig. 5 legend (b24 text assigns the acceptors the other way round), pH 6.8, 30 °C, positive cooperativity
[2] = test system: OC[C@H]1O[C@H](O[C@H]2O[C@H](CO)[C@@H](O)[C@H](O)[C@H]2O)[C@H](O)[C@@H](O)[C@@H]1O; assay: purified protein; conditions: TreS domain, 1 mM MnCl2, no ATP, 125 mM imidazole pH 8, 150 mM NaCl, 30 °C
[3] = biological target: bifunctional TreS-Mak of Estrella lausannensis (trehalose synthase fused to maltokinase) (Estrella lausannensis); assay: SEC; Superose 6 10/300 GL, PBS (10 mM orthophosphate, 140 mM NaCl, pH 7.4), 4 °C, 0.3 mL/min; apparent molecular weight against standard proteins
[4] = biological target: the molecule itself; assay: as above

Nc1ncnc2c1ncn2[C@@H]1O[C@H](COP(=O)(O)OP(=O)(O)O[C@H]2O[C@H](CO)[C@@H](O)[C@H](O)[C@H]2O)[C@@H](O)[C@H]1O [ADP-glc, ADP-glucose]
14C-glucosyl incorporation into glycogen; zymogram (GlgA–GlgB-WC): is functional but highly specific for ADP-glucose

OC[C@H]1O[C@H](O[C@H]2[C@H](O)[C@@H](O)[C@@H](O[C@H]3[C@H](O)[C@@H](O)[C@@H](O[C@H]4[C@H](O)[C@@H](O)[C@@H](O[C@H]5[C@H](O)[C@@H](O)[C@@H](O[C@H]6[C@H](O)[C@@H](O)[C@@H](O[C@H]7[C@H](O)[C@@H](O)C(O)O[C@@H]7CO)O[C@@H]6CO)O[C@@H]5CO)O[C@@H]4CO)O[C@@H]3CO)O[C@@H]2CO)[C@H](O)[C@@H](O)[C@@H]1O (stereo partly shown) [DP7, maltoheptaose]
maltosyl transfer, FACE capillary electrophoresis and Pi release (GlgE-WC; acceptor with 1.6 mM M1P, also disproportionated without M1P): GlgE activities harbor an α-1,4-glucanotransferase activity exclusively with glucans composed of six or seven

O=P(O)(O)O[C@H]1O[C@H](CO)[C@@H](O[C@H]2O[C@H](CO)[C@@H](O)[C@H](O)[C@H]2O)[C@H](O)[C@H]1O [M1P, maltose-1-phosphate]
maltosyl transfer, FACE capillary electrophoresis and Pi release (GlgE-WC; 5 mM malto-oligosaccharide acceptors, 1.6 mM M1P): both GlgE activities enable the transfer the maltosyl moiety of M1P onto the glucan primer

GlgE-EL (Estrella lausannensis)
K0.5 [1]: 0.33 ± 0.02 mM

TreS-Mak of Estrella lausannensis (Estrella lausannensis)
Km [2]: 42.3 ± 2.7 mM

bifunctional TreS-Mak of Estrella lausannensis (trehalose synthase fused to maltokinase) (enzyme)
stoichiometry N [3]: 2

B1: GlgE of Estrella lausannensis (maltosyl-1-phosphate transferase; α-maltose-1-phosphate: 1,4-α-D-glucan 4-α-D-maltosyltransferase) (enzyme, UniProt A0A0H5DRC6 1-675, looked up)
chain: MSVSAAEKRQLLTQVKASGSMYTNTLHSIVIQNISPKPEPFGPAKRVLLEQVEVEADIFTDPHTKLEADLIVKAPGLRKTTRIPFHPLVNDRFKAVFVPDTPGTYSFFVEAWVNPAALWQEDLRKKQEARLDLTVDLQIGAALLVEVADLLPPEESVKLLQIAKKLREQKGAEAVAFDPEIARLGRLARPKSRQGVCSQEQEVFVTRKKALFSTWYELFPRSCSGTMRHGTFNDVVAKLPRISRMGFDVLYLPPIHPIGKTKRKGKNNALTALPDDPGSPWAVGSHEGGHDAIQRELGTLADFERLVKEAESLGIEIALDIALQCSPDHPYLKEHPEWFLKRPDGTYQYAENPPKKYEDIIPFHFTEDNKDTLFREILRIFLFWMKRGVRIFRVDNPHTKPFALWEYVIGEVRKVDSGVIFLAEAFTRPKIMHHLARIGFDQSYTYFTWRNTKWELTEYLTELTKTEARNYLRPNFFVNTPDILPESLQWGGRAAFLTRLILAATLSSSYGIYGPAFEQMLSEAVPGKEDYIDSEKYEIKPWDFEKKGTISETIEIVNRIRKENPALQATGNLEFYATDNDYLLAYGKQGPQGESLLIVVNLDHYHTQSGYVTLPLMHLGIQEKEPYLVDDLLSGERYIWEGERNYIQLSPHLVPAHIFRIRPKMLRENNFDYFI
notes: GlgE (maltosyl-1-phosphate transferase) of Estrella lausannensis, glgE gene amplified from genomic DNA; monomer of 75-76 kD; Cloned in pET15b; also called GlgE-EL; source: E. coli Rosetta (DE3)
stoichiometry N [4]: 2

— paper PMC7935935, “Conservation of the glycogen metabolism pathway underlines a pivotal function of storage polysaccharides in Chlamydiae” (Communications Biology, 2021)
